Measured values reported in patent US20190352343A1 (AUCKLAND UNISERVICES, published 2019).

What was measured:
[1] = molecular target: Cpe0147^439-563 truncated protein domain (Clostridium perfringens); assay: SDS-PAGE, ester bond ligation in the presence of glycerol
[2] = molecular target: Cpe0147^439-563 truncated protein domain (Clostridium perfringens); assay: SDS-PAGE, ester bond ligation in the presence of calcium

Cpe0147^565-587 synthetic peptide
percent of protein converted (ester bond formed) [1]: 70%
percent of protein converted (ester bond formed) [2]: 40%
